Data: article PMC7536822, “Implications for tetraspanin-enriched microdomain assembly based on structures of CD9 with EWI-F” (Life Science Alliance, 2020)
Positions count from the first letter of the chain named.

T1: full-length EWI-F (human, UniProt Q9P2B2 26-879)
T1 construct: human EWI-F, full length, UniprotKB Q9P2B2; All EWI-F constructs were cloned with an N-terminal cystatin signal peptide; Heterogeneously glycosylated; also called CD9-partner 1; prostaglandin F2 receptor negative regulator; source: HEK293-EBNA cells, co-transfected with Strep3-GFP-CD9-W6; in lysate, co-purified (Strep-Tactin, SEC)
T1 sequence (looked up): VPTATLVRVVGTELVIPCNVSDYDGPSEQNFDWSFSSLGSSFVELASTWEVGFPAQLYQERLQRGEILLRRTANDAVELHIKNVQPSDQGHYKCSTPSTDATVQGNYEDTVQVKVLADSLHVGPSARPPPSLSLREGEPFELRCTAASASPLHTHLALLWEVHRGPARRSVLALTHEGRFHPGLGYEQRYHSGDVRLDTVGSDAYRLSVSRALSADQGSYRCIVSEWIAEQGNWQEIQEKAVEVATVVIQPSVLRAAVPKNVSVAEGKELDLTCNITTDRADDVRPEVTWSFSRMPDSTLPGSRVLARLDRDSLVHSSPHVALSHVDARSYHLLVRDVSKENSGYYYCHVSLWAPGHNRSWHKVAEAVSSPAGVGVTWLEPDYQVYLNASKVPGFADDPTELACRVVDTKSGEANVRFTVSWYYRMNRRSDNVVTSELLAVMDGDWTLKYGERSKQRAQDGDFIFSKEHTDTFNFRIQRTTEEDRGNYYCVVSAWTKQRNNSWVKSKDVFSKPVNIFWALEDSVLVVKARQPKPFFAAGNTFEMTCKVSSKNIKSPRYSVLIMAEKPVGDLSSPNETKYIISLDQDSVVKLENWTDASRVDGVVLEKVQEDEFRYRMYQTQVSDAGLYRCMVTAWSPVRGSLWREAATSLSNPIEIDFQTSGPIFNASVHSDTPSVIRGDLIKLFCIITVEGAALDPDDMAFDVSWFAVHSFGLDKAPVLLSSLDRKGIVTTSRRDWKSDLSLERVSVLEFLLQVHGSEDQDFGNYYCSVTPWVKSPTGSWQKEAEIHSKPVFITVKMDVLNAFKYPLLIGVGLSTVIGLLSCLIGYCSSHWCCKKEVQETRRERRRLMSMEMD

T2: endogenous CD9 on HeLa cells (human (endogenous in HeLa), UniProt P21926 1-228)
T2 chain: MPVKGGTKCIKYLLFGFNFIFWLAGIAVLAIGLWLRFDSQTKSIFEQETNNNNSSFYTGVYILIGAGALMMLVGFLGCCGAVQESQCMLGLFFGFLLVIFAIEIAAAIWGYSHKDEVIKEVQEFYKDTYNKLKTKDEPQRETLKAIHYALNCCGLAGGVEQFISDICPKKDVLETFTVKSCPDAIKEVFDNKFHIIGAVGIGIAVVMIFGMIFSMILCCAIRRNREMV

T3: detergent-purified, full-length CD9 (wtCD9-3xSTREP) (human, UniProt P21926 1-228)
T3 chain: T2 chain

B1: N-Strep3-GFP-tagged CD9-W6 (natural protein, human, UniProt P21926 1-228, looked up)
chain: T2 chain with C9W, C78W, C79W, C87W, C218W, C219W
notes: human CD9 (Tspan29), full length, all palmitoylated cysteines mutated to tryptophan (CD9-W6); The Strep3-GFP tag is followed by a TEV-protease site; The results speak only of 'Strep-GFP-tagged CD9'; the methods name CD9-W6 for these experiments; also called Strep-GFP-tagged CD9; source: HEK293-EBNA cells, co-transfected with EWI-F variants; in lysate (DDM or DDM/digitonin), Strep-Tactin purified, …
B2: anti-CD9 nanobody 4E8 (VHH)
VHH: EVQLVESGGRLVRTGGSLRLSCAASGRTFSNYVMGWFRQAPGKEREVVAAITWSGDITWHADFVKGRFTISRDNAKNTVYLQMNSLKPEDTAVYYCAATERWGLRAPADWGSWGQGTQVTVSS
notes: they are in the deposited structure PDB 6Z1V (nanobody chain of CD9EC2-4E8); Differs from 4C8 in CDR2 and CDR3; The thrombin-cleavable tag was not removed before crystallization; also called Nb 4E8; source: E. coli BL-21 Codon Plus (DE3)-RIL, periplasmic secretion, purified (HisTrap, desalting); not shown: His6, C-terminal, kept
B3: anti-CD9 nanobody 4C8 (VHH)
VHH: EVQLVESGGGLVQAGGSLRLSCAASGRTFSDYVMGWFRQAPGKERTFVARIGWSGDLTYYADSVKGRFTISRDNAKNTVYLQMNSLKPEDTAIYYCAADERWGTGGKFDYWGQGTQVTVSS
notes: they are in the deposited structures PDB 6Z1Z (4C8 alone) and PDB 6Z20 (nanobody chain of CD9EC2-4C8); Selected from a phage library (Neviani et al, 2020); The thrombin-cleavable His tag was removed with thrombin; also called Nb 4C8; source: E. coli BL-21 Codon Plus (DE3)-RIL, periplasmic secretion, purified (HisTrap, desalting; thrombin treatment, Superdex75); not shown: His6, C-terminal, cleaved

Experiments:
full-length EWI-F = target: T1, full-length EWI-F; assay: pull-down; Strep3-GFP-CD9-W6 co-transfected with EWI-F variants in 25 ml HEK293-EBNA cultures; lysis in 1% DDM, 0.5% digitonin; Strep-Tactin resin, washes in 0.08% digitonin, elution with desthiobiotin; SDS-PAGE; settings: partners not purified
[1] = target: T4, endogenous CD9 on HeLa cells (human (endogenous in HeLa), UniProt P21926); assay: binding assay on cells in 96-well plates, infrared fluorescence read-out (anti-VHH, IRDye800CW, Odyssey); HeLa cells seeded in 96-well plates, serial dilutions of nanobody for 2 h at 4°C in 1% BSA, 25 mM Hepes pH 7.2 in DMEM; cells fixed with 4% formaldehyde before detection; triplicate; apparent KD by one-site specific binding fit; settings: one partner purified
T4 construct: CD9 (Tspan29) endogenous on HeLa cells; also called CD9 endogenously expressed on HeLa cells; cell-membrane embedded CD9; source: endogenous, on HeLa cells

[2] = target: T5, detergent-purified, full-length CD9 (wtCD9-3xSTREP) (human, UniProt P21926); assay: ELISA; 100 ng wtCD9-3Strep captured on Strep-Tactin coated wells; serial dilutions of nanobody for 2 h at rt in 2% BSA, 25 mM Hepes pH 7.5, 150 mM NaCl, 0.025% DDM; detection with anti-VHH and IRDye800CW; triplicate; apparent KD by one-site specific binding fit; settings: both partners purified
T5 construct: human CD9 (Tspan29), wild type, full length; The construct section lists full-length CD9 with an N-terminal Strep-II tag or an N-terminal Strep3-GFP tag with a TEV site; also called wtCD9-3Strep; source: detergent-purified

[3] = target: T2, endogenous CD9 on HeLa cells; assay: apparent, on HeLa cells
[4] = target: T3, detergent-purified, full-length CD9 …; assay: ELISA; apparent, detergent-purified CD9
[5] = target: T6, CD9–EWI-F_(ΔIg1-5) complex (human, UniProt P21926;Q9P2B2); assay: SEC; purified, EndoHF-treated CD9–EWI-F_(ΔIg1-5) complex incubated with a large excess of 4C8, Superdex 200 10/300 increase in 50 mM Tris pH 7.8, 150 mM NaCl, 0.08% digitonin, 4°C; SDS-PAGE of the peak; settings: both partners purified
T6 construct: human CD9 (Tspan29), wild type, full length; as m12; human EWI-F, residues T685-D879, UniprotKB Q9P2B2; as m11; Preformed complex to which 4C8 was added; source: HEK293-EBNA GNT1- cells, co-expressed, co-purified in digitonin (Strep-Tactin), EndoHF treated; not shown: Strep-II, N-terminal, kept; copies: 2 + 2

Binder	binding result (full-length EWI-F)	binding result [1]	binding result [2]	Kd [3] [nM]	Kd [4] [nM]	binding result [5]
B1	binds	–	–	–	–	–
B2	–	binds	binds	32.6	2.01	–
B3	–	binds	binds	0.59	0.9	binds
